This note sets out measurements from article PMC11826995 (2025).

The target in test [1] is MED1 DRIP-2 coregulator peptide (Homo sapiens, UniProt Q15648). Description: anisotropy.
The target in test [2] is EP300 coregulator peptide (Homo sapiens, UniProt Q09472). Description: fluorescence anisotropy.
The next test deals with T1, HSPB6 phosphopeptide (Homo sapiens, UniProt O14558).
T1 chain: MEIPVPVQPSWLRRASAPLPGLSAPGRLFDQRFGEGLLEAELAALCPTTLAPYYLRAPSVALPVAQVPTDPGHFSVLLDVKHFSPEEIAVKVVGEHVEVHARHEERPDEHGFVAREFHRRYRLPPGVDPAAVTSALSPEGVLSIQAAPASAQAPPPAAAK
Description: fluorescence anisotropy. (In general: In fluorescence polarisation assays a small probe gives low polarisation when free and higher when bound to something large.)

MED1 DRIP-2 coregulator peptide, sequence (Q15648 whole entry): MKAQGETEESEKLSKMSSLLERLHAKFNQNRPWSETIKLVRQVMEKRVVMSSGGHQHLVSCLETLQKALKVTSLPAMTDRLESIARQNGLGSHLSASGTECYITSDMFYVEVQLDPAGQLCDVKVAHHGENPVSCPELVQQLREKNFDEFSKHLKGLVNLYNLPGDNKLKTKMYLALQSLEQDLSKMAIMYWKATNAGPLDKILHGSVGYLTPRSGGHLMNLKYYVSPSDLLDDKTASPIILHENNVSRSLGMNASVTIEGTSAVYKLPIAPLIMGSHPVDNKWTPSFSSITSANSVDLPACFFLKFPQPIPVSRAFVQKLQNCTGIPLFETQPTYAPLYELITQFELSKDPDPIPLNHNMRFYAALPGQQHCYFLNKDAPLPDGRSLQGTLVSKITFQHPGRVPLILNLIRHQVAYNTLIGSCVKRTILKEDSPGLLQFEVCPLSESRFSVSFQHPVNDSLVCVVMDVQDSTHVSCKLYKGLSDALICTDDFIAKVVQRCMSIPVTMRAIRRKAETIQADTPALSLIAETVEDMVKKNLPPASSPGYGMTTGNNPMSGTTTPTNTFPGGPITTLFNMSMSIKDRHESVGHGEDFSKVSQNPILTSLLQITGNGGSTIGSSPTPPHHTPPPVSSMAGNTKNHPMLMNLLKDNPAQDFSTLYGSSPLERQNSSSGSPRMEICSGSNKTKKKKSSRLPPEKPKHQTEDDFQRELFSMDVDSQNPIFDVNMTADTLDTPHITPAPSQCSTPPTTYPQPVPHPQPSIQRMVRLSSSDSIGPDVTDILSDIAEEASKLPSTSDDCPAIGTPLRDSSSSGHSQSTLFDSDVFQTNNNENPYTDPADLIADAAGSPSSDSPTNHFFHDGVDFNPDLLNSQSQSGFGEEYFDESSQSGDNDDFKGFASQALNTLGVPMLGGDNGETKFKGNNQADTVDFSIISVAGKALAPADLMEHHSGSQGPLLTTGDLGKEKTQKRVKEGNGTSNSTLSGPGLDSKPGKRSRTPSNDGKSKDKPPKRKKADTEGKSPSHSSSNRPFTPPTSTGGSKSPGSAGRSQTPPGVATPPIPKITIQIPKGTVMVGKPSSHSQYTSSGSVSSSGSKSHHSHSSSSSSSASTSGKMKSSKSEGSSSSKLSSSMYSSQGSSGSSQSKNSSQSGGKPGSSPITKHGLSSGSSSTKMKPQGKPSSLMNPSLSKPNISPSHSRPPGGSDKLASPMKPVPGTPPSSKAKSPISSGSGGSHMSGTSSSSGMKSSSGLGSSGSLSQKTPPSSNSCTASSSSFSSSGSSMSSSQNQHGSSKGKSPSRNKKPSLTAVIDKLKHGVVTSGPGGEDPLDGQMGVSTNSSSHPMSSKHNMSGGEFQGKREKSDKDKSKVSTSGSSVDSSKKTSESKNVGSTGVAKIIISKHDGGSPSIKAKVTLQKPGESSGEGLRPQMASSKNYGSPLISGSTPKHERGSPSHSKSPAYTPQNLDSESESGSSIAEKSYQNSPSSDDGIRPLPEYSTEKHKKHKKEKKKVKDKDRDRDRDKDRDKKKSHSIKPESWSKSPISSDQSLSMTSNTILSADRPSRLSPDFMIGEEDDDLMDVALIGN
EP300 coregulator peptide, sequence (Q09472 2-2414): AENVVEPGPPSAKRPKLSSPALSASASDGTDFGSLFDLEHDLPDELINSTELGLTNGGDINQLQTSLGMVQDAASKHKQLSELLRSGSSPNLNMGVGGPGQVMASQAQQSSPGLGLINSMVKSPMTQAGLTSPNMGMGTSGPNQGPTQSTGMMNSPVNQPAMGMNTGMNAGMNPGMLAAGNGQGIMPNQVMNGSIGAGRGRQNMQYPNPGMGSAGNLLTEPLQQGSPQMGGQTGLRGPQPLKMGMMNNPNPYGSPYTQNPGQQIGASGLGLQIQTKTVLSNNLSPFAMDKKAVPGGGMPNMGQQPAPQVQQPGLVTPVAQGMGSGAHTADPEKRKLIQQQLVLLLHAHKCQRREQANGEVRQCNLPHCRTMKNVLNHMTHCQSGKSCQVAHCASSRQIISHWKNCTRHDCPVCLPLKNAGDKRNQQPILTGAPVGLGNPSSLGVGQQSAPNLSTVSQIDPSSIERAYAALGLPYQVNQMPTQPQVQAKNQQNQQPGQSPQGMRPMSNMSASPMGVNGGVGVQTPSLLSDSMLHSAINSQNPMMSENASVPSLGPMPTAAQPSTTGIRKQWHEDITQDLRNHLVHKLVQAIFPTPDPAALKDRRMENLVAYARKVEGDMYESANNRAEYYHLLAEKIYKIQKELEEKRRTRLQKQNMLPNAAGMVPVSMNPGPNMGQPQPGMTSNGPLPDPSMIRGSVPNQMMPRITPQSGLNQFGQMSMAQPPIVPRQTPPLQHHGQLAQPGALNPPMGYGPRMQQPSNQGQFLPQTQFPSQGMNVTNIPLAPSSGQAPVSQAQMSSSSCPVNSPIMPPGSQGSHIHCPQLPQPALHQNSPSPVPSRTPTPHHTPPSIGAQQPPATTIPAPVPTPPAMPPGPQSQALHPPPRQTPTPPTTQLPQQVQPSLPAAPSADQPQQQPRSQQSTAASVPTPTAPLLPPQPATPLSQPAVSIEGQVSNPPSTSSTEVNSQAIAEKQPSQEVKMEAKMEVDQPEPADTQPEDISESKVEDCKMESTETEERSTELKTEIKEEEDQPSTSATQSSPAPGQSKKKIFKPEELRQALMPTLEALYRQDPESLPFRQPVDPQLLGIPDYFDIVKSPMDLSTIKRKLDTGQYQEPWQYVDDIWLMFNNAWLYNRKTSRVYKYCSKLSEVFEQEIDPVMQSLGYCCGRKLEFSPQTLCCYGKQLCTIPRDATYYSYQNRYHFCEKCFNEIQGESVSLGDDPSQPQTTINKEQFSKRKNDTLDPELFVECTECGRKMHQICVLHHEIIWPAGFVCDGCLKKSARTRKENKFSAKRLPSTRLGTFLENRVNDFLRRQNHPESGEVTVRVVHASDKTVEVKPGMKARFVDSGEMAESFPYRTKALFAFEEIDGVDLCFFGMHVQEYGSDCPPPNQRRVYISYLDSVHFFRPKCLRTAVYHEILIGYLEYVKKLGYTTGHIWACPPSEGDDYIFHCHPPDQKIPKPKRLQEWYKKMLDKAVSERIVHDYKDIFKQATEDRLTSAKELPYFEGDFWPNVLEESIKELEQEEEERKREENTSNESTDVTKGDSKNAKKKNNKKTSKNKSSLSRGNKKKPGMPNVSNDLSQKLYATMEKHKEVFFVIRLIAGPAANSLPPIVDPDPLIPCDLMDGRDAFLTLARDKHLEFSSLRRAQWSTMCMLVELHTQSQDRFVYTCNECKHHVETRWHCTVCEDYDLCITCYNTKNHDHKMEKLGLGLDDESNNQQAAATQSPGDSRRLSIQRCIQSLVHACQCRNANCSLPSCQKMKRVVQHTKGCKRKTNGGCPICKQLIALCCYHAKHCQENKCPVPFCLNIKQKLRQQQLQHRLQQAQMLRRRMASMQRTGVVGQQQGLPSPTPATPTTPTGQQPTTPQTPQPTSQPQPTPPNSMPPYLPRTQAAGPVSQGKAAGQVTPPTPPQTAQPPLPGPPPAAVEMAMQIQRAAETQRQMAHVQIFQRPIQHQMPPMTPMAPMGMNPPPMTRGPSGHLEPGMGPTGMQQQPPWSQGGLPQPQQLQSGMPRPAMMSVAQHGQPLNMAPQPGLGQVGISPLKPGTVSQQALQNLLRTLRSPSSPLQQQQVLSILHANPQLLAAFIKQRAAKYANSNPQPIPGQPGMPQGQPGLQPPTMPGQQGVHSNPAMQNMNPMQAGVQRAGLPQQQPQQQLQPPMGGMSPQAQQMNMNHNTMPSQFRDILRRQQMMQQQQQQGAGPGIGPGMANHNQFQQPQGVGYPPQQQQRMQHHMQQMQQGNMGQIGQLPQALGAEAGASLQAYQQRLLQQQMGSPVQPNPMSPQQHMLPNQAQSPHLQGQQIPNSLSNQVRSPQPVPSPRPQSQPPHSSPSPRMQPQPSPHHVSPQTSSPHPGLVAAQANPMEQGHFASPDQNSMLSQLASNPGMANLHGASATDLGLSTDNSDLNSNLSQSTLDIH

B1: PPARγ (protein)
chain: MGETLGDSPIDPESDSFTDTLSANISQEMTMVDTEMPFWPTNFGISSVDLSVMEDHSHSFDIKPFTTVDFSSISTPHYEDIPFTRTDPVVADYKYDLKLQEYQSAIKVEPASPPYYSEKTQLYNKPHEEPSNSLMAIECRVCGDKASGFHYGVHACEGCKGFFRRTIRLKLIYDRCDLNCRIHKKSRNKCQYCRFQKCLAVGMSHNAIRFGRMPQAEKEKLLAEISSDIDQLNPESADLRALAKHLYDSYIKSFPLTKAKARAILTGKTTDKSPFVIYDMNSLMMGEDKIKFKHITPLQEQSKEVAIRIFQGCQFRSVEAVQEITEYAKSIPGFVNLDLNDQVTLLKYGVHEIIYTMLASLMNKDGVLISEGQGFMTREFLKSLRKPFGDFMEPKFEFAVKFNALELDDSDLAIFIAVIILSGDRPGLLNVKPIEDIQDNLLQALELQLKLNHPESSQLFAKLLQKMTDLRQIVTEHVQLLQVIKKTETDMSLHPLLQEIYKDLY
For B1, the Kd (commonly a measure of binding affinity in units of concentration) in test [1] is 647 nM; in test [2] it was over 10000 nM.

B2: 14-3-3σ (protein)
chain: MERASLIQKAKLAEQAERYEDMAAFMKGAVEKGEELSCEERNLLSVAYKNVVGGQRAAWRVLSSIEQKSNEEGSEEKGPEVREYREKVETELQGVCDTVLGLLDSHLIKEAGDAESRVFYLKMKGDYYRYLAEVATGDDKKRIIDSARSAYQEAMDISKKEMPPTNPIRLGLALNFSVFHYEIANSPEEAISLAKTTFDEAMADLHTLSEDSYKDSTLIMQLLRDNLTLWTADNAGEEGGEAPQEPQS
modifications: phosphorylated HSPB6 peptide
For B2, binding in the test with HSPB6 phosphopeptide was characterised by a dissociation constant (Kd) of 990 nM.
